For 17 sequences, Kd results are on record in the Immune Epitope Database (IEDB).

This test has as its target HLA-A*02:01. Kind of test: IEDB peptide-MHC binding, purified MHC/direct/fluorescence; filed as Kd, often an IC50 or EC50 that approximates it; ≥ and ≤ were set here for values at or beyond the usual limits of such assays. Conditions: source organism: Influenza A virus (A/Puerto Rico/8/1934(H1N1)).
The Kd is the constant that tells how readily two partners part at equilibrium. A lower Kd goes with higher affinity. Consider FLAMITYMT, for which the dissociation constant Kd was determined as 253 nM.

FLARSALIL returned a Kd of 0.9 nM.

Take FLKDVMESM: the Kd was found to be 51 nM.

The sequence FLLMDALKLSI gave a Kd of 24 nM.

For FMQALHLLL, the dissociation constant (Kd) worked out at 13 nM.

For GMFNMLSTV, the Kd was 23 nM.

In turn, GMFNMLSTVL came in with a Kd of 384 nM.

Take IILKANFSV: the Kd worked out at 45 nM.

Regarding LLQNSQVYS, the Kd was 1370 nM.

MMGMFNMLSTV displayed a dissociation constant (Kd) of 51 nM.

In turn, MMMGMFNMLST returned an equilibrium dissociation constant (Kd) of 36 nM.

The sequence RMGAVTTEV registered a Kd of 133 nM.

The sequence SLVGIDPFRL returned an equilibrium dissociation constant (Kd) of 70 nM.

Sequence VLMEWLKTRPI displayed a dissociation constant Kd of 101 nM.

WMMAMKYPI yielded a Kd of 36 nM.

In the case of WMMAMKYPITA, the Kd worked out at 75 nM.

As for YLIRALTLNTM, the equilibrium dissociation constant (Kd) stood at 46 nM.
